In patent publication US20240239881A1 (Innovent, published 2024):
Residue numbers refer to the chain shown, from its start.

Assays:
[1] = molecular target: T1, recombinant biotinylated hAngiopoietin-2 protein (R&D, Cat. No.: BT623B/CF) (human, UniProt O15123 19-496, limits assumed, biotinylated (sites not given)); assay: ELISA: biotin Ang2 (R&D BT623B/CF) captured on coated streptavidin (SA), antibody titrated, anti-human IgG-HRP, OD450-OD620, GraphPad fit
T1 construct: Bought protein; also called Biotin Ang2; human biotin Ang2 protein
T1 sequence: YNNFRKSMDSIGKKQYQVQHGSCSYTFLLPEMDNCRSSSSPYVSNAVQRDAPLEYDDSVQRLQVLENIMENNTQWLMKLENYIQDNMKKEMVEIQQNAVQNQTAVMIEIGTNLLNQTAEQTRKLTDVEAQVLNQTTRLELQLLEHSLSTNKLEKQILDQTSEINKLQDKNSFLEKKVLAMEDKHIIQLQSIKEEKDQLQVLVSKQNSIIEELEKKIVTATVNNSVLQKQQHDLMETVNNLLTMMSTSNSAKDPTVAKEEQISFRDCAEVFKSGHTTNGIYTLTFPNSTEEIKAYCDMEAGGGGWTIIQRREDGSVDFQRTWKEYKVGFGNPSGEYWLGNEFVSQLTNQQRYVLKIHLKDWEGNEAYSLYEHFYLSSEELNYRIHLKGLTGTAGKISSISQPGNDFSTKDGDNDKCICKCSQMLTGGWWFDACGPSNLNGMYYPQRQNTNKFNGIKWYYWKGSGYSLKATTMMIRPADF
Procedure: The binding of 81H10 and hz81H10.4 of the present invention to human biotin Ang2 protein was measured in an SA-biotin Ang2-based ELISA assay.
SA protein (Thermo Fisher) was diluted to 1 μg/ml with PBS, and was coated onto a microtiter plate at 100 μl/well at 4° C. overnight. After three washes with PBST, the plate was blocked with 5% BSA for 1 h. Biotin Ang2 (R&D, Cat. No. BT623B/CF) was incubated at a concentration of 0.5 μg/ml for 1 h. Gradient diluted antibodies (maximum concentration 20 nM, 1:3 serial dilution) were added to the microtiter plate and incubated for 2 h, and the plate was washed three times with PBST. […] Then the plate was washed for 6 times with PBST. Chromogenic reaction was performed with 100 ul TMB and terminated with 100 ul 2N sulfuric acid. The reading of OD₄₅₀-OD₆₂₀ was taken by microplate reader. The concentration-dependent curve was fitted with GraphPad based on the OD₄₅₀-OD₆₂₀.

Rhesus ANG2 [2] = molecular target: T2, Rhesus ANG2 (rhesus, UniProt F6QXG0 19-496); assay: SPR, Biacore T200, mean of three experiments
T2 sequence: T1 sequence with I279V, F284L, I291V, G410A, A468G
Procedure: (§1) The antibody was diluted to 1 μg/mL and was captured onto channel 2 for 30 s, and channel 1 was the blank control channel. The gradient-diluted Human ANG2, Rhesus ANG2, Rabbit ANG2, Rat ANG2 and Mouse ANG2 were sequentially injected into channels 1 and 2 of the chip, from low to high concentrations (0-32 nM), at a flow rate of 30 μL/min, with one concentration per cycle, and with 180 s association time and 1200 s dissociation time at 25° C. Finally, the chip was regenerated using Glycine pH 1.5 at 30 μL/min for 30 s. The affinity assay was repeated three times.

Rabbit ANG2 [3] = molecular target: T3, Rabbit ANG2 (rabbit, UniProt G1T9B3 19-496); assay: SPR, Biacore T200, mean of three experiments
T3 sequence: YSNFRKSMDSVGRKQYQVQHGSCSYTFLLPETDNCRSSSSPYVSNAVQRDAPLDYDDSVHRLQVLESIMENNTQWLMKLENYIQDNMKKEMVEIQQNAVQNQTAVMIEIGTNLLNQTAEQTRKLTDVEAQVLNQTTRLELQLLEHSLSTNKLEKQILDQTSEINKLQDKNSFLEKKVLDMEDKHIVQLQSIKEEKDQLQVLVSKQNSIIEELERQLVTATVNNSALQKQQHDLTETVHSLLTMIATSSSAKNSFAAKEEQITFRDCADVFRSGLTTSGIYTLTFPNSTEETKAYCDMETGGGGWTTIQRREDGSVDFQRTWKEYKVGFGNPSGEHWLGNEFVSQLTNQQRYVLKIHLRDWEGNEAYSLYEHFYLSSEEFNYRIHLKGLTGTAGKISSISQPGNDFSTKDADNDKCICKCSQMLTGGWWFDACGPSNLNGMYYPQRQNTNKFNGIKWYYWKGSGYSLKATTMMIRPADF
Procedure: as §1

human Ang2 [4] = molecular target: T4, human Ang2 (human, UniProt O15123 19-496, limits assumed); assay: SPR, Biacore T200, mean of three experiments
T4 construct: also called hAng2; h Ang2
T4 sequence: T1 sequence
Procedure: as §1

Rhesus ANG2 [5] = molecular target: T2, Rhesus ANG2; assay: SPR, Biacore T200, antibody captured on Protein G chip, experiment 3
Procedure: as §1

Rabbit ANG2 [6] = molecular target: T3, Rabbit ANG2; assay: as above
Procedure: as §1

human Ang2 [7] = molecular target: T4, human Ang2; assay: as above
Procedure: as §1

[8] = molecular target: T5, hAng2-Fc protein (Sino Biological, Cat No.: 10691-H02H) (human, UniProt O15123 19-496); assay: cell-based or functional assay
T5 sequence: T1 sequence

B1: humanized antibody hz81H10.4 (antibody, human IgG1, kappa, V domains shown)
VH: EVQLVESGGGLVKPGGSLRLSCAASGFTFSNYWMNWVRQAPGKGLEWVAEIRLKSNNYATHYAESVKGRFTISRDVSKNTVYLQMNSLKTEDTAVYYCTDTAPFAYWGQGTLVTVSS
VL: DIQMTQSPSSLSASVGDRVTITCKASQDVGTDVAWYQQKPGKAPKLLIYWASTRHTGVPSRFSGSGSGTDFTLTISSLQPEDFATYYCQQYSSYPLTFGGGTKVEIKR
notes: also called IBI335
EC50 [1]: 0.0212 nM
Kd (Rhesus ANG2 [2]): 0.146 nM
Kd (Rabbit ANG2 [3]): 0.48 nM
Kd (human Ang2 [4]): 0.0457 nM
Kd (Rhesus ANG2 [5]): 0.13 nM
koff (Rhesus ANG2 [5]): 4.03e-05 s⁻¹
kon (Rhesus ANG2 [5]): 311000 M⁻¹ s⁻¹
Kd (Rabbit ANG2 [6]): 0.446 nM
koff (Rabbit ANG2 [6]): 0.000144 s⁻¹
kon (Rabbit ANG2 [6]): 322000 M⁻¹ s⁻¹
Kd (human Ang2 [7]): 0.0357 nM
koff (human Ang2 [7]): 1.05e-05 s⁻¹
kon (human Ang2 [7]): 293000 M⁻¹ s⁻¹
IC50 (read off the curve) [8]: ~5 nM
